This is an account of results in US20220332818A1 (AstraZeneca / MedImmune, published 2022).

For the assay, the target named is T1, TIM-3 IgV domain (human) (human, UniProt Q8TDQ0 22-130).
T1 construct: also called IgV domain of TIM-3; human TIM-3 IgV
T1 sequence: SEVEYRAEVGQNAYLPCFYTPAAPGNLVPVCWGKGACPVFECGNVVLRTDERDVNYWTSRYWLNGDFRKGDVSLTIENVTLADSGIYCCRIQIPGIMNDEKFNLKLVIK
The assay can be described thus: co-crystal X-ray structure.

Experimental: To obtain the co-crystal structure of the TIM-3 IgV domain with antigen-binding fragments (Fabs), all proteins were expressed in mammalian cells and purified to homogeneity. Purified TIM-3 IgV domain and Fabs (one at a time) were incubated at a slight excess of IgV domain, followed by size exclusion purification of the complex. Crystallization of the complexes was performed at room temperature. The X-ray diffraction data was collected at the Stanford Synchrotron Radiation Lightsource (SSRL, Menlo Park, Calif., USA). Structures of the complexes were solved by molecular replacement.

B1: Fab of anti-TIM3 antibody #62 (Fab, V domains shown)
VH: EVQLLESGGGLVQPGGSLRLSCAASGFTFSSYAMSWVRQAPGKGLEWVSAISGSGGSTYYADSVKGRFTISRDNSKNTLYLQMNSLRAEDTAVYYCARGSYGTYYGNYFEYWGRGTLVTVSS
VL: QTVLTQPPSVSVAPGKTASISCGGDNIGGKSVHWYQQKPGQAPVLVIYYDSDRPSGIPQRFSGSNSGNTATLTIHRVEAGDEADYYCQVLDRRSDHWLFGGGTKLTVL
notes: Fab expressed in mammalian cells for co-crystallisation; also called clone 62
For the molecule B1, the binding result is “binds”.
